Bridges are numbered along the chain shown (N, C = ends). Where no end group is shown, it is not given here. [ ]: non-standard residue; d: D form.
How the values were obtained:
[1] = molecular target: T1, VEGF-A binding to VEGFR1 receptor (Homo sapiens, UniProt P15692); assay: VEGF-A:VEGFR1 inhibition in Octet assay; type: biochemical; details: for inhibition at 0.08 µM: read-out: % inhibition at 80 nM compound, D-peptidic compounds
T1 sequence (P15692 214-315 limits assumed): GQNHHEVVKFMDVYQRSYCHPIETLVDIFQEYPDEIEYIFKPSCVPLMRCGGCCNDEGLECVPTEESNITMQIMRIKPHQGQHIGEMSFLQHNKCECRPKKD
Description: Compounds of interest were assessed for inhibition of VEGF-A:VEGFR1 in an Octet assay.
The resulting dimeric compounds were assayed for VEGF-A inhibition activity in an octet assay.

[2] = system: VEGF-A signaling through VEGFR2; assay: VEGFR2 luciferase reporter cell signaling assay (KDR/NFAT-RE HEK293); type: cell-based; details: 150 pM VEGF-A; read-out: IC50, inhibition of VEGFR2 signaling (luciferase)
Description: Here VEGF-A activates VEGFR2 signaling in 293 cells resulting in luciferase expression as a functional readout. Inhibition of VEGF-A signaling in this system results in a loss of luciferase signal.
Measurement of VEGF cellular signaling was performed using the VEGF Bioassay (Promega). Briefly, HEK293 cells are engineered to express VEGFR-2 coupled to a luciferase response element (KDR/NFAT-RE HEK293). VEGF signaling through VEGFR-2 mediates expression of luciferase which can be quantified using bioluminescence. […] Following incubation Bio-Glo is added to wells according to the manufacturer's protocol and relative luminescence units (RLUs) were measured on a PerkinElmer 2300 Enspire Multimode plate reader. Data plotted are mean±standard deviation of triplicate measurements. IC50 values were derived from 3-parameter fits using Prism (GraphPad) and error reported are derived from fits.

HUVEC cell proliferation = details: read-out: IC50 for inhibition of cell proliferation in response to VEGF signaling; HUVEC, recombinant VEGF-A
Excerpt: Here, HUVEC cell proliferation is increased in the presence of recombinant VEGF-A and antagonist compounds that block VEGF-A signaling reduce HUVEC cell proliferation.

VEGF-A = molecular target: T2, VEGF-A (Homo sapiens, UniProt P15692); details: 5 μM 978336 to saturation, then 5 μM 978336 plus 1 μM 11055
T2 sequence (P15692 214-315): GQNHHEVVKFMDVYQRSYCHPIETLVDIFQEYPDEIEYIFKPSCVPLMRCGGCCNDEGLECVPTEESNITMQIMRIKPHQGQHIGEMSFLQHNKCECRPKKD

L-VEGF-A [3] = molecular target: T3, L-VEGF-A (Homo sapiens, UniProt P15692); assay: ka (10^6/M^-1s^-1)
T3 construct: Biotinylated VEGF-A(8-109) was immobilized on a biotin CAPture chip

L-VEGF-A [4] = molecular target: T3, L-VEGF-A; assay: kd (s^-1)
[5] = molecular target: D-VEGF-A (8-109), synthetic mirror-image protein (Homo sapiens (Human)) (UniProt P15692); assay: SPR; L-peptidic compound on D-VEGF-A
[6] = molecular target: D-VEGF-A (8-109), synthetic mirror-image protein (Homo sapiens (Human)) (UniProt P15692); assay: competitive phage ELISA; L-peptidic compound on D-VEGF-A
VEGF-A (form not stated) [7] = molecular target: VEGF-A (form not stated) (UniProt P15692); assay: Octet; inhibition of VEGF-A (10 nM) binding to VEGFR1
VEGF-A (form not stated) [8] = molecular target: VEGF-A (form not stated) (UniProt P15692); assay: Octet; inhibition of VEGF-A binding to VEGFR1
[9] = molecular target: T4, Biotinylated human VEGF-A121 (human, UniProt P15692-9 27-147, biotinylated); assay: equilibrium VEGF-A121/VEGFR1 blocking ELISA; soluble VEGFR1-Fc against coated VEGFR1-Fc
T4 construct: Bought; also called VEGF-A121-biot
T4 sequence (looked up): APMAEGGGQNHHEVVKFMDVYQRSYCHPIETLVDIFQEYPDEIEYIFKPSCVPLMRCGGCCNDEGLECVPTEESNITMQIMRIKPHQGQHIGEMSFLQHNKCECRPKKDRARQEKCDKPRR

VEGF-A (form not stated) [10] = molecular target: T5, VEGF-A (form not stated) (UniProt P15692-9 27-147, limits assumed); assay: equilibrium VEGF-A/VEGFR1 blocking ELISA, 150 pM VEGF-A; soluble VEGFR1-Fc against coated VEGFR1-Fc
T5 construct: also called biotinylated-VEGF-A; recombinant VEGF-A
T5 sequence (looked up): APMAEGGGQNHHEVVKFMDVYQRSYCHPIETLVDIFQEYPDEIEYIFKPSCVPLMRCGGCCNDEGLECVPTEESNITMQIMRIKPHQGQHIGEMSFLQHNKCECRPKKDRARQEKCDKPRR

[11] = molecular target: L-VEGF-A (8-109) (Homo sapiens (Human)) (UniProt P15692); assay: SPR
VEGF-A (form not stated) [12] = molecular target: VEGF-A (form not stated) (UniProt P15692); assay: cell-based or functional assay
[13] = molecular target: L-VEGF-A (8-109) (Homo sapiens (Human)) (UniProt P15692); assay: SPR on natural L-VEGF-A
[14] = molecular target: T4, Biotinylated human VEGF-A121; assay: non-equilibrium VEGF-A121 blocking ELISA
VEGF-A (form not stated) [15] = molecular target: VEGF-A (form not stated) (UniProt P15692); assay: VEGF-A blocking ELISA on coated VEGFR1-Fc
[16] = molecular target: T4, Biotinylated human VEGF-A121; assay: equilibrium VEGF-A121/VEGFR1 blocking ELISA
[17] = molecular target: L-VEGF-A (8-109) (Homo sapiens (Human)) (UniProt P15692); assay: SPR per Examples 7, 8, 11 (method not named in Table 4)
VEGF-A (form not stated) [18] = molecular target: VEGF-A (form not stated) (UniProt P15692); assay: equilibrium VEGF-A/VEGFR1 blocking ELISA, 150 pM VEGF-A
[19] = molecular target: L-VEGF-A (8-109) (Homo sapiens (Human)) (UniProt P15692); assay: SPR, biotinylated VEGF-A(8-109) on a biotin CAPture chip, D-protein in solution, global single site kinetic fit

[dP][dA][dL][dL][dK][dN][dA][dK][dE][dD][dA][dI][dA][dE][dL][dK][dK][dA]G[dI][dT][dE][dP][dH][dV][dI][dS][dF][dI][dN][dH][dA][dP][dY][dV][dS][dH][dV][dN]G[dL][dK][dN][dA][dI][dL]G[dR][dT][dV][dP] [1.1.1.2 (pa, pis), pallknakedaiaelkkaGitephvisfinhapyvshvnGlknailGrtvp]
inhibition at 0.08 µM [1]: 18%

[dT][dI][dD][dQ][dW][dL][dL][dK][dN][dA][dK][dE][dD][dA][dI][dA][dE][dL][dK][dK][dA]G[dI][dT][dE][dP][dH][dV][dI][dS][dF][dI][dN][dH][dA][dP][dY][dV][dS][dH][dV][dN]G[dL][dN][dA][dI][dL]G[dR][dT][dV][dP] [1.1.1(c21a) (-kaha, Grtvp), tidqwllknakedaiaelkkaGitephvisfinhapyvshvnGlnailGrtvp]
inhibition at 0.08 µM [1]: 27%

bevacizumab [reference compound]
IC50 [2]: 0.53 nM
IC50 (HUVEC cell proliferation): 0.7 nM

tidqwllknakedaiaelkkaGitephvisfinhapyvshvnGlknailkaha [Compound 11055]
binding of 978336 and 11055 together to VEGF-A (VEGF-A): additive binding

tidqwllknakedaiaelkkaGitephvisfinhapyvshvnGlknailkahac(acetyl)
% inhibition at 80 nM compound ([1]; D-peptidic compounds): 68%

yhiqwvcknakedaiaelkkaGitephvisfinhapncshvnGlknailkaha ([dY][dH][dI][dQ][dW][dV][dC][dK][dN][dA][dK][dE][dD][dA][dI][dA][dE][dL][dK][dK][dA]G[dI][dT][dE][dP][dH][dV][dI][dS][dF][dI][dN][dH][dA][dP][dN][dC][dS][dH][dV][dN]G[dL][dK][dN][dA][dI][dL][dK][dA][dH][dA]-NH2; disulfide 7-38; not fully specified; printed as yhiqwvcknakedaiaelkkaGitephvisfinhapncshvnGlknailkaha) [Compound 979110]
ka (10^6/M^-1s^-1) (L-VEGF-A [3]): 2.14 10^6/M^-1s^-1
kd (L-VEGF-A [4]): 0.0052 s⁻¹

LLKNAKEDAIAELKKAGITEDHVFNFINHAPYVSHVNGLKNAILKAHA (designed binder) [1.1 (-tidqw) (L-peptidic)]
Kd [5]: 450 nM

B1: 1.1 (-kaha, GehGsp) (L-peptidic) (designed binder)
chain: TIDQWLLKNAKEDAIAELKKAGITEDHVFNFINHAPYVSHVNGLKNAILGEHGSP
IC50 [6]: 14 nM

B2: 1.1 (D-peptidic) (designed binder)
chain: [dT][dI][dD][dQ][dW][dL][dL][dK][dN][dA][dK][dE][dD][dA][dI][dA][dE][dL][dK][dK][dA]G[dI][dT][dE][dD][dH][dV][dF][dN][dF][dI][dN][dH][dA][dP][dY][dV][dS][dH][dV][dN]G[dL][dK][dN][dA][dI][dL][dK][dA][dH][dA]
IC50 (VEGF-A (form not stated) [7]): 105 nM

B3: 1.1.1.2 (pa, pis) (D-peptidic) (designed binder)
chain: [dP][dA][dL][dL][dK][dN][dA][dK][dE][dD][dA][dI][dA][dE][dL][dK][dK][dA]G[dI][dT][dE][dP][dH][dV][dI][dS][dF][dI][dN][dH][dA][dP][dY][dV][dS][dH][dV][dN]G[dL][dK][dN][dA][dI][dL]G[dR][dT][dV][dP]
% inhibition at 80 nM compound (VEGF-A (form not stated) [8]): 18%

LLKNAKEDAIAELKKAGITEPHVISFINHAPYVSHVNGLKNAILEDWYL (designed binder) [1.1.1(c21a) (-tidqw, -kaha, edwyl) (L-peptidic)]
IC50 [6]: 0.86 to 1.1 nM

B4: 1.1 (L-peptidic) (designed binder)
chain: TIDQWLLKNAKEDAIAELKKAGITEDHVFNFINHAPYVSHVNGLKNAILKAHA
Kd [5]: 140 nM
IC50 [6]: 100 to 105 nM

B5: 1.1 (-kaha, edyl) (L-peptidic) (designed binder)
chain: TIDQWLLKNAKEDAIAELKKAGITEDHVFNFINHAPYVSHVNGLKNAILEDYL
IC50 [6]: 5 nM

B6: 1.1 (-kaha, adfl) (L-peptidic) (designed binder)
chain: TIDQWLLKNAKEDAIAELKKAGITEDHVFNFINHAPYVSHVNGLKNAILADFL
IC50 [6]: 12 nM

B7: VEGFR1-Fc (Fc fusion, UniProt P17948 27-756, looked up)
chain: SKLKDPELSLKGTQHIMQAGQTLHLQCRGEAAHKWSLPEMVSKESERLSITKSACGRNGKQFCSTLTLNTAQANHTGFYSCKYLAVPTSKKKETESAIYIFISDTGRPFVEMYSEIPEIIHMTEGRELVIPCRVTSPNITVTLKKFPLDTLIPDGKRIIWDSRKGFIISNATYKEIGLLTCEATVNGHLYKTNYLTHRQTNTIIDVQISTPRPVKLLRGHTLVLNCTATTPLNTRVQMTWSYPDEKNKRASVRRRIDQSNSHANIFYSVLTIDKMQNKDKGLYTCRVRSGPSFKSVNTSVHIYDKAFITVKHRKQQVLETVAGKRSYRLSMKVKAFPSPEVVWLKDGLPATEKSARYLTRGYSLIIKDVTEEDAGNYTILLSIKQSNVFKNLTATLIVNVKPQIYEKAVSSFPDPALYPLGSRQILTCTAYGIPQPTIKWFWHPCNHNHSEARCDFCSNNEESFILDADSNMGNRIESITQRMAIIEGKNKMASTLVVADSRISGIYICIASNKVGTVGRNISFYITDVPNGFHVNLEKMPTEGEDLKLSCTVNKFLYRDVTWILLRTVNNRTMHYSISKQKMAITKEHSITLNLTIMNVSLQDSGTYACRARNVYTGEEILQKKEITIRDQEAPYLLRNLSDHTVAISSSTTLDCHANGVPEPQITWFKNNHKIQQEPGIILGPGSSTLFIERVTEEDEGVYHCKATNQKGSVESSAYLTVQGTSDKSN
notes: Bought; also called VEGFR1-Fc fusion; soluble decoy receptor VEGFR1-Fc; not shown: Fc part
IC50 [9]: 0.23 nM
IC50 (VEGF-A (form not stated) [10]): 0.22 nM

B8: RFX-979110 (designed binder)
chain: [dY][dH][dI][dQ][dW][dV][dC][dK][dN][dA][dK][dE][dD][dA][dI][dA][dE][dL][dK][dK][dA]G[dI][dT][dE][dP][dH][dV][dI][dS][dF][dI][dN][dH][dA][dP][dN][dC][dS][dH][dV][dN]G[dL][dK][dN][dA][dI][dL][dK][dA][dH][dA]-NH2
modifications: disulfide 7-38; not fully specified
fold affinity improvement over RFX-11055 [11]: 19 fold
fold improvement of VEGF binding over 11055 [11]: 10 fold
HUVEC cell proliferation, apparent IC50 (VEGF-A (form not stated) [12]): 131 nM
HUVEC cell proliferation, potency against 11055 (VEGF-A (form not stated) [12]): 4 fold
fold decrease in HUVEC cell proliferation, potency against bevacizumab (VEGF-A (form not stated) [12]): 185 fold
Kd [13]: 3.6 nM
fold improvement of IC50 over RFX-11055 [14]: 15 fold
fold better IC50 than 11055 (VEGF-A (form not stated) [15]): 14.8 fold
IC50 [16]: 7.6 nM
Kd [17]: 2.3 nM
IC50 (VEGF-A (form not stated) [18]): 7 nM
koff [19]: 0.0052 s⁻¹
kon [19]: 2.14e+06 M⁻¹ s⁻¹
